A protein production outcome set (Wang et al. 2014)
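Further: failed if final PepcDB status was selected cloned or expressed and not failed if soluble or beyond.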

Assay: label from the status in PepcDB records
In the case of “MAKSPKKSKSRLWFLVHSWLALPIWFFVLIVCFTGMLAVVSQEIVWLADPAARANKPDADTERMSFQQVLEALNKAEPDMVVERLSQPDGSHFAVKANVTLPDGTSPTLYVNPYTGTIQGRTPDFNFEAFTRALHGWWLVPFTNGFSWGWYLVSLLGLPMLASLVTGLVVYKKFWKGFFKPVRTGHGSRIFWGDLHRLSGVWSIWFIAVISITGTWFLIQAILSDNHITISSRPIVPVIAREEVPQTPDGSPASRIDLDEAARLAGLAIPGLEVTSITLPATAYSHVTLSGPGWYPLMFQSASVNPYTRNVDSQFLISDRSALEFVTESMRPLHTGDFGGLPIKLVWFFFGLILTLMVLSGLLIWTKRTAQATAAALKRSERAPRAAHSETTVEIHS”, the protein production is reported as “failed”. For “MAKSQIEPGVPITLQELYPSSLFYKEGVSLRVTAMLRGYSVETAIGVIEDGGRSLKINTQNIRDVSFRVGSIYQFIGELHIEQPNNEARTGRNVDGIDMNLYRKTIELLRQFLKEEDNSNMVE”, the protein production was “failed”. For “MAKVKVLFVRNLANTVTEEILEKAFSQFGKLERVKKLKDYAFIHFDERDGAVKAMEEMNGKDLEGENIEIVFAKPPDQKRKERKAQRQAA”, the protein production was “not failed”. With “MAKVLVLNASYEPLNITHWQRAVVLLLKDKAEALENNGKLIYANFPLPSVIRLRQYIKVPYKEIPLTRRNVLERDRHTCQYCNYKGEQLTLDHVIPRSRGGGDSWENLVTACVRCNIKKGNRTPREAQMSLNYTPRRPYSSLLFEIIKHTRNDRNHEWRKYVIGILEHHHHHH” the protein production was “failed”. In the case of “MAKVNITRDLIRRQIKERGALSFERRYHVTDPFIRRLGLEAELQGHSGCVNCLEWNEKGDLLASGSDDQHTIVWDPLHHKKLLSMHTGHTANIFSVKFLPHAGDRILITGAADSKVHVHDLTVKETIHMFGDHTNRVKRIATAPMWPNTFWSAAEDGLIRQYDLRENSKHSEVLIDLTEYCGQLVEAKCLTVNPQDNNCLAVGASGPFVRLYDIRMIHNHRKSMKQSPSAGVHTFCDRQKPLPDGAAQYYVAGHLPVKLPDYNNRLRVLVATYVTFSPNGTELLVNMGGEQVYLFDLTYKQRPYTFLLPRKCHSSGEVQNGKMSTNGVSNGVSNGLHLHSNGFRLPESRGHVSPQVELPPYLERVKQQANEAFACQQWTQAIQLYSKAVQRAPHNAMLYGNRAAAYMKRKWDGDHYDALRDCLKAISLNPCHLKAHFRLARCLFELKYVAEALECLDDFKGKFPEQAHSSACDALGRDITAALFSKNDGEEKKGPGGGAPVRLRSTSRKDSISEDEMVLRERSYDYQFRYCGHCNTTTDIKEANFFGSNAQYIVSGSDDGSFFIWEKETTNLVRVLQGDESIVNCLQPHPSYCFLATSGIDPVVRLWNPRPESEDLTGRVVEDMEGASQANQRRMNADPLEVMLLNMGYRITGLSSGGAGASDDEDSSEGQVQCRPS”, the protein production is reported as “failed”. In the case of “MAKVTERYDVTWEEMRDKMRKWREENSRNSEQIMEVGEELINDYASKLGDDIWIIYEQVMIAALDYGRDDLALFCLQELRRQFPGSHRVKRLTGMRFEAMERYDDAIQLYDRILQEDPTNTAARKRKIAIRKAQGKTVEAIRELNEYLEQFVGDQEAWHELAELYINEHDYAKAAFCLEELMMTNPHNHLYCQQYAEVKYTQGGLENLELSRKYFAQALKLNNRNMRALFGLYMSASHIASNPKASAKMKKDNIKYASWAANQINRAYQFAGRSKKETKYSLKAVEDMLETLQITQS”, the protein production is reported as “failed”. With “MALARANSPQEALLWALNDLEENSFKTLKFHLRDVTQFHLARGELESLSQVDLASKLISMYGAQEAVRVVSRSLLAMNLMELVDYLNQVCLNDYREIYREHV” the protein production was “not failed”. In the case of “MALDLNDVALFVQVVRSGSFAQAARHLGMPSNTVSRKVQQLEIQLGTRLLHRSTRKLVLTQAGEDFHERCVGAVDGLMDAAEQLVSGREEPGGRLRIAAMADFFDFFSMEWVADFLAEYPRVQLEFVLSDERADLIADRLDIAFRGGPLQDSGYVGRQLIEEGHDTMVASPAYIAAHGMPDSLQSLHGHYCVSTAHPGGSTVWRLLGPDAKMHEVQMASRFNANTAQALRKATLAGLGIALLPATLIRSDLRDGRLVPVLTQYQRTSHGLHVLYPSRQHLPPAVSAFIALVMEKLRDKAFAAQ”, the protein production is reported as “failed”. In the case of “MALEIKILDYGDIELESSFLVLGRDCGRTRRVLTLGFLILGGKYPVVVDTGYRSNQIMETLGMRGLQYHEHMIENQLARHGVRMGDVRFVCHTHLHIDHAGKDDLFPMNTTVVLNRKELEYSVSGLMHPQYPAPDIKHLIDRLHTKSALRFLDLEITGPIELMPGVYCDAANAHTEGSMNIIVETADGIATICGDVIYDFNDQIVTPFNEIHDWEPRTTGNHGTSKRAEKASIKKLLSNSRYLLPVHDRPAKIEGGMVVGRLHDQVPGPIVQSLPPRNWFPA”, the protein production is reported as “failed”. With “MALFIPTRLVSALALVGVSGLMLGCGSSGGGSNGTTASSAKAASSTPVAISSVAASSTAAVAGNIKLNQLGFLPESAKWAVVPAGVAASFTVINATTNAEVFSGNLSVAATWSASEESVKLADFSSVKTPGDYLLRVEGVNDSYPFTIANDVYSALTAASIKAFYFNRNSAELLATHAGMFARPPGHPDTQVLVHVSAASAARPAGTIISSPKGWYDAGDYNKYIVNSGIATYSLLAAYEHFPDIFNGQNLNIPESGDALPDLLNETLWNLEWMLSMQDPNDGGVYHKLTNKNFDGTVMPHQATSERYVVQKTTAAALDFAAVMATASRVVAQYESQLPGMSAKMLAAAESAWNWAVANPAITYKQPDDIKTGEYGDGNLADEFFWAAAELYITSKKDAYYTAMKPTETVATVPSWGDVRSLGWISLAHHRDNLTAVADKQLIANRIDGLAANLQSVWATSAYRVTMQKNDFVWGSNSVALGQAMMLVQGYRLNGKREYLDAAQAMLDYVLGRNATDMSFVTGYGDKSTLHPHHRPSEADGIVEPIPGFIAGGPQPGQQDKSGCSVSYPSNIAAKSYLDNWCSYASNEIAINWNAPLVYVSAAIQALTPK” the protein production was “failed”. For “MALHPTDYFRKERIFVDRETCIDNFRRFIQNSNNQDYNALFYYGIAGIGKSKLQHKLQNILNTEYPEMLWVSMDLENDTHRNVSTFLIALRNKIQKKCNVRFYKFNLAHAIFSKKSRPDIPLNKETYPMLKEDGFFYEILNSLNETAFGPFISIPVKRIVDIINQAPGNVRRHFGELPIDINKLESMEAHEIEKKLPGIFAADFTGSLGTNSRACIFIDTYEAIWKGWRGIGSFSEKDKWIRKCLIPNMPGVSWVICGRKQIKSLWIKDEQDWEMCMKEYPIEDLPEEYSEQFLKEYIEEEDIRSVIVKASEGVPCYLNLSVDTYEQVSRIKKPEVKDFPNTKIEVFEKFVKYLDNNEKRTLYILSAPNSWDRNLFKKLINEFNPTYSIYEFSDLIKYSFVKKITDEKFSLHQLMRKNLQEYQDPTYRKDVHLFLHEYYSNKIKDVDVRSITQEHEISLIEAYYHAREVLKFEDLGGWIAKYTEPFNEAGYWKTIYPMIEDFAEILKEKFGPDNIYYGIFVRKLAFLNEDRGKYNEAIFYYQQVLKIFEKNMGKKILENNDLVVDDHSIAMVTNDLANCYLSIGEYEKALTLQQNSLKTVQNKVNKDPLYIALLQQNIALTYQYLGQYNKAMELCQEALTVREACLGEEDLEVAKTAENLAVIHQQLGNYKEAFALAKRALNIREKKLGSKHPLVATNLSSLGVLCIIMGNLEEGLKYNQRAVKIAEERFEGDHISVAETLSNLGATYQYMLRYDDALEAYQRALNITEHSLGLENPKLVNILNNIAETYRKMENYEKALEFYQRALDIARNHLGKEHPTIALIMNNLGRLYMNTKEFDKAHTICQQALDIRGKTLGTDHVDFAITSLDLGIIYGCVGRRDYALPLLEHSLRIFEQKLGSDHIYTKNAKLVVDTLKESR”, the protein production was “failed”. For “MALILTFLGKSGVARTKIAIAAAKLLASQGKRVLLAGLAEPVLPLLLEQTLTPDPQQIAPNLEVVQFQSSVLLERNWEEVKKLEAQYLRTPIIKEVYGQELVVLPGMDSALALNAIREYDASGKYDAIVYDGTGDAFTLRMLGLPESLSWYVRRFRQLFVNSDLGKTIAESPLIQPLISSFFNVNWTADNFAQPTNQVNNFLDKGKEALADPKRVAAFLVTTADPLEVVSVRYLWGSAQQIGLTIGGVIQVSSQTEGDLSAEFTPLSVTVVPDVTKGDWQPLIDALPNFVEQAEQAPKPITIDTHNRQVRLFLPGFDKKQVKLTQYGPEVTVEAGDQRRNIFLPPALSGRPITGAKFQNNYLIISFLEHHHHHH”, the protein production was “not failed”. For “MALKEAHQPQTQPLWHQLGLVLAKHFEPQDAKAVLQLLRQEHEERLQKISLEHLEQLAQYLLAEEPHVEPAGERELEAKARP”, the protein production was “failed”.
